How the values were obtained:
[1] = molecular target: T1, rhodopsin in urea treated rod outer segments, P02699
T1 chain: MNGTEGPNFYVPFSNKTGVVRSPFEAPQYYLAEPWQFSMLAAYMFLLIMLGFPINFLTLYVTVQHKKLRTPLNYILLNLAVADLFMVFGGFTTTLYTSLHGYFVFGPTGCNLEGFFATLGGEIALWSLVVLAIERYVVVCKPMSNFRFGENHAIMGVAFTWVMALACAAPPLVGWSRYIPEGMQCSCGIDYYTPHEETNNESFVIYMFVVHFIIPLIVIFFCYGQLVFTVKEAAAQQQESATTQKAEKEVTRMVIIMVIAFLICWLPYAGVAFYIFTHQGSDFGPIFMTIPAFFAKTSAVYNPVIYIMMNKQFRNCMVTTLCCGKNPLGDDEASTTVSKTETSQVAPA

peptide RRRAAAEASAAA = molecular target: T2, peptide RRRAAAEASAAA
T2 chain: RRRAAAEASAAA

[2] = molecular target: T3, peptide RRRASAAASAA containing a phosphoserine as the first serine
T3 chain: RRRASAAASAA

[3] = molecular target: m2 muscarinic cholinergic receptor
peptide RRREEESEEE = molecular target: T4, peptide RRREEESEEE
T4 chain: RRREEESEEE

peptide RRREEESGGG = molecular target: T5, peptide RRREEESGGG
T5 chain: RRREEESGGG

[4] = molecular target: polylysine, a 14-16 amino acid peptide
peptide RRRAEASAA = molecular target: T6, peptide RRRAEASAA
T6 chain: RRRAEASAA

B1: G protein-coupled receptor kinase GRK6 (human) (protein)
chain: MELENIVANTVLLKAREGGGGNRKGKSKKWRQMLQFPHISQCEELRLSLERDYHSLCERHAIGRLLFREFCATRPELSRCVAFLDGVAEYEVTPDDKRKACGRHVTQNFLSHTGPDLIPEVPRQLVTNCTQRLEQGPCKDLFQELTRLTHEYLSVAPFADYLDSIYFNRFLQWKWLERQPVTKNTFRQYRVLGKGGFGEVCACQVRATGKMYACKKLEKKRIKKRKGEAMALNEKQILEKVNSRFVVSLAYAYETKDALCLVLTLMNGGDLKFHIYHMGQAGFPEARAVFYAAEICCGLEDLHRERIVYRDLKPENILLDDHGHIRISDLGLAVHVPEGQTIKGRVGTVGYMAPEVVKNERYTFSPDWWALGCLLYEMIAGQSPFQQRKKKIKREEVERLVKEVPEEYSERFSPQARSLCSQLLCKDPAERLGCRGGSAREVKEHPLFKKLNFKRLGAGMLEPPFKPDPQAIYCKDVLDIEQFSYVKGVELEPTDQDFYQKFATGSVPIPWQNEMVETECFQELNVFGLDGSVPPDLDWKGQPPAPPKKGLLQRLFSRQDCCGNCSDSEEELPTRL
G protein βγ subunits
  kinase activation by G protein βγ subunits: it is not activated by G protein βγ subunits
histones
  protein substrate phosphorylation: it was only weakly reactive toward the basic protein substrate histones
[1]
  rhodopsin phosphorylation activity relative to βARK virus infected supernatant: 4.7% +/-0.4% that of the βARK virus infected supernatant
phosvitin
  protein substrate phosphorylation: GRK6 was able to phosphorylate the acidic proteins casein and phosvitin
Peptide RRRAAAEASAAA
  peptide phosphorylation: but not with the RRRAAAEASAAA (SEQ ID NO: 11) peptide
[2]
  peptide phosphorylation: the same peptide containing a phosphoserine as the first serine is not phosphorylated by GRK6
[3]
  stimulus dependent receptor phosphorylation: GRK6 is also able to phosphorylate rhodopsin, β2-adrenergic and m2 muscarinic cholinergic receptors in a stimulus dependent manner, albeit to a significantly lower extent than βARK and GRK5
Peptide RRREEESEEE
  peptide phosphorylation: poorly phosphorylated by GRK6
Peptide RRREEESGGG
  peptide phosphorylation: poorly phosphorylated by GRK6
β2-adrenergic receptor
  stimulus dependent receptor phosphorylation: GRK6 is also able to phosphorylate rhodopsin, β2-adrenergic and m2 muscarinic cholinergic receptors in a stimulus dependent manner, albeit to a significantly lower extent than βARK and GRK5
[4]
  fold increase in phosphorylation of rhodopsin: an ˜2.7-fold increase in phosphorylation (optimal range 1 to 10 µM)
Peptide RRRAEASAA
  peptide phosphorylation: GRK6 activity was also apparent with the RRRAEASAA (SEQ ID NO: 10) peptide
casein
  protein substrate phosphorylation: GRK6 was able to phosphorylate the acidic proteins casein and phosvitin
